Measured values from patent US12013397B2, “Compositions and methods for determining cancer prognosis” (CASE WESTERN RESERVE UNIVERSITY, priority 2019, dated 2024).
Ends that are not written are not given here. Texas Red = Texas Red fluorescent dye

How the values were obtained:
GBM tissue = conditions: cited from earlier work
[1] = target: T1, proteolytically cleaved extracellular fragments of PTPμ (Homo sapiens, UniProt P28827); test: SBK4-TR staining of human glioma tissue microarrays and slides; type: binding
T1 construct: from tissue; host or cells: formalin-fixed, paraffin-embedded human glioma patient tumor tissue (TMAs and slides)
T1 sequence (P28827 21-742 limits assumed): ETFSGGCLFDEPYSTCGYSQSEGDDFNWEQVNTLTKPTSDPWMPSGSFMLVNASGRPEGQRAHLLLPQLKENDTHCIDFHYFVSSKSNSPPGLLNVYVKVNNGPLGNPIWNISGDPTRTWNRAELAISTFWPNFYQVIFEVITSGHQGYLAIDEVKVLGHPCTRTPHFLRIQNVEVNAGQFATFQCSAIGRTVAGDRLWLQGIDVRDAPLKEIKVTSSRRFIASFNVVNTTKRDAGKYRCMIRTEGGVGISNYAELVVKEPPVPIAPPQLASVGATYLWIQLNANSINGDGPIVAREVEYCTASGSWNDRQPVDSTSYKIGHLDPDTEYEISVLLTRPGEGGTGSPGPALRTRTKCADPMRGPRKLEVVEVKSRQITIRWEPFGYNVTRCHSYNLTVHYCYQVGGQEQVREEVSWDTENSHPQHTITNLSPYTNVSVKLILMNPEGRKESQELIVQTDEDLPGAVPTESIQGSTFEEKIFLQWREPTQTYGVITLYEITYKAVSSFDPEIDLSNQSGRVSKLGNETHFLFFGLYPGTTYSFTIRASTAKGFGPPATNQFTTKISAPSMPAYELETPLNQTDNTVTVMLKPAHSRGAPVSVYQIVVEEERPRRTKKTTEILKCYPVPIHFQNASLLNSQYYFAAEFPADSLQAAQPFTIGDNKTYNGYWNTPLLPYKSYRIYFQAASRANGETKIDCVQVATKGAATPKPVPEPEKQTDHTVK
From the text: The SBK4 peptide used for immunohistochemistry was synthesized as described. The N-terminal glycine of SBK4 peptide was coupled to Texas Red (TR; Molecular Probes Inc, Eugene Oreg.) as described to make the fluorescent agent. Anti-IDH1 R132H Monoclonal Antibody clone H09 (American Research Products [Dianova GmbH], Waltham, Mass.) reacts specifically with the isocitrate dehydrogenase 1 (IDH1) R132H point mutation in tissue sections from formalin-fixed brain tumor specimens.
Patient tumor samples were obtained, formalin-fixed, and paraffin-embedded for analysis. Some samples were incorporated into tissue microarrays (TMAs) and some samples were placed on individual slides. Together, these TMAs and slides represented samples from 94 glioma patients (25 adolescent and young adult and 69 adult) with astrocytomas (n=12), oligodendroglioma (n=14), oligoastrocytoma (n=7), and GBM (n=61). Tissue staining with SBK4-TR has been described. […] Antibody binding was detected using MACH4 horseradish peroxidase (Biocare, Pacheco, Calif.) and diaminobenzidine was used as chromogenic substrate. […]
Tissue staining intensity for both PTPμ and IDH1 biomarkers was quantified by blinded observers. […] For IDH1, samples were scored as either positive for the mutation or negative as it is done clinically.

PTPμ biomarker = target: T2, PTPμ biomarker (Homo sapiens, UniProt P28827); test: SBK4-TR staining of human gynecologic cancer, normal and PDX tissue (Image J quantification); type: binding
T2 construct: from tissue; host or cells: formalin-fixed, paraffin-embedded human gynecologic cancer and normal tissue, and patient-derived xenograft sections
T2 sequence (P28827 21-1452): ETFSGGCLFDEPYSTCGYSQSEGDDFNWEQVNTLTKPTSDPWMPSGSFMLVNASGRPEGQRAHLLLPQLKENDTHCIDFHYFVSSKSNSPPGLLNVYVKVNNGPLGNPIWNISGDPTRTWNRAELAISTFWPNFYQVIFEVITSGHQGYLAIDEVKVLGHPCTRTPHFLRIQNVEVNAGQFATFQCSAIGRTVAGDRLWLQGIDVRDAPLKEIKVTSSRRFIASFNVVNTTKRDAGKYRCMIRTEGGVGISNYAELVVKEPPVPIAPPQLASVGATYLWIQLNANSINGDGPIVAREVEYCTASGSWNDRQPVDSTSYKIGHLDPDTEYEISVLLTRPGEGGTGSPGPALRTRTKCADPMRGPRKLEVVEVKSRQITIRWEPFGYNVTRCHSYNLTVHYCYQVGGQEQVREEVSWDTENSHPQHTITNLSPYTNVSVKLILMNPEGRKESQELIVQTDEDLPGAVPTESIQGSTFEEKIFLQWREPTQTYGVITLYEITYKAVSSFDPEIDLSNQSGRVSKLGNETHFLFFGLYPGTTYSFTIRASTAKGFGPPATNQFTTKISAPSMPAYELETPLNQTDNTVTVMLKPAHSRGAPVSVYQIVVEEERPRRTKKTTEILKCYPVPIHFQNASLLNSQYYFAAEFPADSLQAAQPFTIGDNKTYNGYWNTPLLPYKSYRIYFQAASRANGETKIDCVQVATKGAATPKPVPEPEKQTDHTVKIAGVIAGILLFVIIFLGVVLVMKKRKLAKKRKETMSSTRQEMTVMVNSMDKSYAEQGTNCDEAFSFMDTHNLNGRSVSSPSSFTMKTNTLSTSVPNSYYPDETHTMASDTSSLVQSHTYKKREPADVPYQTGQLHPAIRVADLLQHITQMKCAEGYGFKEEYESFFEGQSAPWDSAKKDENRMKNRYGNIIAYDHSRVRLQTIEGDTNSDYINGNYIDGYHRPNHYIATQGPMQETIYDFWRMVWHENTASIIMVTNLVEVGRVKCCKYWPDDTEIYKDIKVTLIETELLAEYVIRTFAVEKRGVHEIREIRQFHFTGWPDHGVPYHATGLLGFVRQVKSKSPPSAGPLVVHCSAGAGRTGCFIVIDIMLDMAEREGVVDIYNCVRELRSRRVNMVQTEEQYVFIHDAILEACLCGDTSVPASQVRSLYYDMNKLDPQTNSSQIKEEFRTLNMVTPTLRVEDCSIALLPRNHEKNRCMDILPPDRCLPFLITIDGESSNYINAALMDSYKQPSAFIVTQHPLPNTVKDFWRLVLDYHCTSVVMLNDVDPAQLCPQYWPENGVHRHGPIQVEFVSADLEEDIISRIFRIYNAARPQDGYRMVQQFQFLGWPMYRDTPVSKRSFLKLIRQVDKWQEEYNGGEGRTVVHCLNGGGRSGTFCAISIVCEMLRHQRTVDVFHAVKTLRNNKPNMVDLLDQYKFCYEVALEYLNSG
From the text: The SBK4 peptide used for tissue staining was synthesized as described. The N-terminal glycine of SBK4 peptide was coupled to Texas Red (TR; Molecular Probes Inc, Eugene, Oreg., USA) as described to make the fluorescent agent. Anti-p53 Monoclonal or Ki-67 antibodies were used to counterstain tissue sections, to indicate nuclear staining of p53 typical in high-grade serous ovarian carcinoma.
All samples used for this study were obtained from the Difeo and Avril labs. The Avril group generated tissue microarrays of several gynecologic cancers (TMAs) to facilitate screening a large number of patient biopsy tissues. The Difeo lab generated TMAs that included sections from patient derived xenografts (PDXs) matched to original patient tumor tissue sections. Additional individual biopsy and normal tissue samples were stained as individual slides. Together, these TMAs and slides represented samples from 73 patients (49 with gynecologic cancer, 22 sections from patients without cancer, and 2 patients with gynecologic cancer tissue and control tissue samples collected). The following gynecologic cancer types were represented in the dataset: endometrial clear cell carcinoma (n=3), endometrial endometrioid carcinoma (n=18), endometrial high-grade serous carcinoma (n =6), endometrial leiomyosarcoma (n=1), endometrial undifferentiated carcinoma (n=1), endometrial undifferentiated sarcoma (n=1), neuroendocrine tumor of the uterus (small cell) (n=1), ovarian carcinosarcoma (n=1), ovarian borderline serous (n=1), ovarian high-grade villoglandular carcinoma (n=1), ovarian high-grade serous carcinoma (n=16), ovarian endometrioid carcinoma (n=1).
Tissue staining with SBK4-TR was described. Positive controls (GBM) and negative controls (Epilepsy) were tested with the TMAs or individual slides. Tumor samples were obtained formalin-fixed and paraffin-embedded. Prior to staining, the TMAs or slides were deparaffinized and blocked with 2% goat serum in phosphate buffered saline (PBS) for 20 min at room temperature (RT). The samples were then incubated with SBK4-TR agent diluted in 2% goat serum in PBS at RT for 1 hr in the dark. Following a PBS rinse, the TMAs or slides were coverslipped with Vectashield Hard Set Mounting Medium (Vector Laboratories, Inc., Burlingame, Calif., USA) and imaged on a Hamamatsu Nanozoomer S60 slide scanner (Bridgewater, N.J., USA). Some samples were also stained for the IDH1 mutation. Tissue staining for both PTPμ was quantified using Image J.

Molecule | labeling the dispersive GBM tumor border (GBM tissue; in vivo) | six month progression-free survival (GBM tissue; surgical resection of GBM) | extent of tumor resection (GBM tissue; surgical resection of GBM, versus 36% with white light alone) [%] | PTPμ staining of the tumor samples ([1]; formalin-fixed paraffin-embedded glioma samples, fluorescent microscope) | labeling of glioma tissue by grade ([1]; low- and high-grade glioma tissue) | SBK4-TR staining of tumor tissue compared to control tissue (PTPμ biomarker; endometrial endometrioid cancer, high-grade serous endometrial carcinoma, endometrial clear cell carcinoma, small sample sizes) | staining observed within the TMAs (PTPμ biomarker; gynecologic cancer TMAs) | SBK4-TR labeling of tumor tissue compared to normal tissue (PTPμ biomarker; high-grade serous ovarian carcinoma vs normal ovary or normal fallopian tube) | SBK4-TR labeling of PDX tissue compared to original patient tumor tissue (PTPμ biomarker; matched patient tumor and PDX tumors, all samples) | correspondence of sites of high SBK4-TR labeling with p53 and Ki-67 staining (PTPμ biomarker; patient with multiple lesions)
NCC(=O)CCC(=O)O [5-ALA, 5-aminolevulinic acid] | less effective | improvement | 65 | – | – | – | – | – | – | –
SBK4-TR: SBK4 peptide (SEQ ID NO: 7) conjugated to Texas Red ({Texas Red}-GIDVRDAPLKEIKVTSSR) | – | – | – | variable PTPμ staining | labels both low- and high-grade glioma tissue | did not have statistically significantly higher SBK4-TR staining than control tissue | varied amongst individual patients | statistically significantly higher staining | PDX tissue had higher levels of SBK4-TR labeling than the original patient tumor tissue | correspond to areas of high p53 and Ki-67 staining
